Data set [1] deals with BRIL-fused human Cx36 (cytoplasmic loop residues 109-187 replaced with cytochrome b562RIL) (UniProt Q9UKL4). Nature of the data set: cryo-EM structure; single-particle cryo-EM of the purified gap junction channel in LMNG/CHS detergent; D6 symmetry; 50 mM phenylalanine added for Cx36-WT.
Data set [2] concerns the molecule itself. Nature of the data set: cryo-EM structure; single-particle cryo-EM of the purified gap junction channel in MSP1E1 nanodiscs with soybean polar lipid extract; D6, C6 or C1 symmetry; 50 mM phenylalanine added for Cx36-WT.
Data set [3] concerns the molecule itself. Description: cryo-EM structure; single-particle cryo-EM of the purified gap junction channel in LMNG/CHS detergent; D6 symmetry; 50 mM phenylalanine added for Cx36-WT.

As to “BRIL-fused human Cx36 (cytoplasmic loop residues 109-187 replaced with cytochrome b562RIL) (from UniProt Q9UKL4 1-108; P0ABE7 21-128; Q9UKL4 188-321)”, the stoichiometry N in data set [1] was 12.

B1: Human Cx36 with N-terminal residues 2-8 deleted (natural protein, UniProt Q9UKL4 1-321, looked up)
chain: MRLLEAAVQQHSTMIGRILLTVVVIFRILIVAIVGETVYDDEQTMFVCNTLQPGCNQACYDRAFPISHIRYWVFQIIMVCTPSLCFITYSVHQSAKQRERRYSTVFLALDRDPPESIGGPGGTGGGGSGGGKREDKKLQNAIVNGVLQNTENTSKETEPDCLEVKELTPHPSGLRTASKSKLRRQEGISRFYIIQVVFRNALEIGFLVGQYFLYGFSVPGLYECNRYPCIKEVECYVSRPTEKTVFLVFMFAVSGICVVLNLAELNHLGWRKIKLAVRGAQAKRKSIYEIRNKDLPRVSVPNFGRTQSSDSAYV
notes: Connexin 36 (Cx36, GJD2), human, full length with 7 N-terminal residues (2-8) deleted; Made by PCR from pXY-Cx36-WT; expressed and purified by the same protocol as Cx36-WT; also called Cx36-ΔN8; Cx36_(Nano)-ΔN8; source: HEK293E, transiently transfected, purified as Cx36-WT; reconstituted in MSP1E1 soybean lipid nanodiscs; not shown: eYFP, C-terminal, cleaved; 10xHis, C-terminal, cleaved; copies: …
Consider B1, for which the binding result in data set [2] is reported as “binds”.

B2: Wild-type human connexin 36 (Cx36/GJD2) gap junction channel (natural protein, UniProt Q9UKL4 1-321, looked up)
chain: MGEWTILERLLEAAVQQHSTMIGRILLTVVVIFRILIVAIVGETVYDDEQTMFVCNTLQPGCNQACYDRAFPISHIRYWVFQIIMVCTPSLCFITYSVHQSAKQRERRYSTVFLALDRDPPESIGGPGGTGGGGSGGGKREDKKLQNAIVNGVLQNTENTSKETEPDCLEVKELTPHPSGLRTASKSKLRRQEGISRFYIIQVVFRNALEIGFLVGQYFLYGFSVPGLYECNRYPCIKEVECYVSRPTEKTVFLVFMFAVSGICVVLNLAELNHLGWRKIKLAVRGAQAKRKSIYEIRNKDLPRVSVPNFGRTQSSDSAYV
notes: Connexin 36 (Cx36, GJD2), human, full length (Met1-Val321); The tags were cut off at an HRV 3C site between Cx36 and eYFP; residues of the site may be left at the C-terminus; also called Cx36-WT; Cx36_(LMNG)-WT; source: HEK293E, transiently transfected, purified (Rho-1D4 antibody resin, HRV 3C cleavage, Superose 6 Increase SEC); in LMNG/CHS or reconstituted in MSP1E1 soybean lipid nanodiscs; not …
With B2, in data set [3], the “stoichiometry N” value amounted to 12.

Usually stoichiometry N stands for the number of molecules, sites or subunits per partner or assembly.
